Assay [1] concerns the target T1, human PD-L1 expressed on 300.19 cells (human, UniProt Q9NZQ7 19-290).
T1 construct: whole, on cells; also called huPD-L1; PD-L1-expressing 300.19 cells
In words: FACS competition on PD-L1-expressing 300.19 cells; competitor Alexa 488-labeled murine BAP058. As for the experimental part:
(§1) Incubations with the mAb mixtures having different concentration ratios of test mAb to labeled mAb was at 4° C. for 30 min. Bound labeled murine mAb was then quantified using a FACS machine. The experiment was performed twice.

Assay [2] concerns the target T1, human PD-L1 expressed on 300.19 cells. The experiment in a line: FACS competition; blocking of PE-labelled PD-1-Ig (0.7 ug/mL) on PD-L1-expressing 300.19 cells. As for the experimental part: (§2) Bound fluorescence was then measured using FACS and IC₅₀ values determined using Prism software.
For the next assay, the target named is T2, human PD-L1 protein (human, UniProt Q9NZQ7 19-238, limits assumed).
T2 construct: Construct not described
The experiment in a line: Biacore T-100; IgG captured by anti-human Fab on CM5 chip, PD-L1 flowed over (100-1.56 nM), 1:1 fit. As for the experimental part:
(§3) Immobilization was done at 25° C. using a flow rate of 10 μl/min. […] Test antibody was captured on Flow cell FC2, FC3 and FC4. […] Run Biacore Wizards Kinetic/Affinity: association time 120 sec, dissociation 600 sec. (Running buffer HBS-EP+BSA 0.25 mg/ml, Regeneration buffer: 10 mM glycine HCl pH 2.1). Data analyses were done with Biacore T-100 Evaluation software version 2, fit on 1:1.

Another assay concerns the target T3, cynomolgus PD-L1 protein (cynomolgus, UniProt G7PSE7 19-238).
T3 construct: also called Monkey PD-L1; cyno PD-L1
The assay is described as above. As for the experimental part:
as §3

The next assay addresses mouse PD-L1 protein (mouse, UniProt Q9EP73 19-238, limits assumed). The assay is described as above. As for the experimental part:
as §3

The target in the next assay is rat PD-L1 protein (rat, UniProt D4AE25 19-239). The assay is described as above. As for the experimental part:
as §3

Assay [3] addresses T1, human PD-L1 expressed on 300.19 cells. The experiment in a line: competition FACS against Alexa 488-labeled murine BAP058 on PD-L1-expressing 300.19 cells. As for the experimental part: as §1
Assay [4] has the same target. In words: blocking of PE-labelled PD-1-Ig (0.7 µg/mL) binding to PD-L1-expressing 300.19 cells, FACS, 4 C, 4 h. As for the experimental part: as §2
For assay [5] the target is unchanged. In words: semi-quantitative ranking in the binding studies (4th column, p-1058; FACS data, p-1056); high number = poorer binder; the column's head says only 'Rank'.

As usually defined, the IC50 is the concentration needed to halve the response being measured. The low end stands for higher potency, the high end for lower potency. As a reminder, the Kd is the constant that tells how readily two partners part at equilibrium. Lower therefore signals a tighter complex.

rat PD-L1 protein, sequence (D4AE25 entry or part of it limits assumed): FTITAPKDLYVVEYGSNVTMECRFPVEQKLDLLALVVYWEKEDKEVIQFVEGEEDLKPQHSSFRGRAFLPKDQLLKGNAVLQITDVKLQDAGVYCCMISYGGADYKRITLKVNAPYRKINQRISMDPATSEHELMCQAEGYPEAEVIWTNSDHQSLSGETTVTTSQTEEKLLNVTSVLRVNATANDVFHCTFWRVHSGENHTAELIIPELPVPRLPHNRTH
T3 sequence (G7PSE7 entry or part of it): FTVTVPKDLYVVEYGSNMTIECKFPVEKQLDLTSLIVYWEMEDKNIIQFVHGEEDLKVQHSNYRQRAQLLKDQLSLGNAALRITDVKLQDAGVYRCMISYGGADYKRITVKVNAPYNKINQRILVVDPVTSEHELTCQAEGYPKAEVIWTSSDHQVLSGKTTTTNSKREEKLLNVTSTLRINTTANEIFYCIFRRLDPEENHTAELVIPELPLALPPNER
T2 sequence (Q9NZQ7 19-238 limits assumed): as the sequence (G7PSE7 entry or part of it) above, with T33A, S34A, N62S, Q68R, R82Q, L173F, A185T, I192T, L215H counted along it
T1 sequence (Q9NZQ7 19-290): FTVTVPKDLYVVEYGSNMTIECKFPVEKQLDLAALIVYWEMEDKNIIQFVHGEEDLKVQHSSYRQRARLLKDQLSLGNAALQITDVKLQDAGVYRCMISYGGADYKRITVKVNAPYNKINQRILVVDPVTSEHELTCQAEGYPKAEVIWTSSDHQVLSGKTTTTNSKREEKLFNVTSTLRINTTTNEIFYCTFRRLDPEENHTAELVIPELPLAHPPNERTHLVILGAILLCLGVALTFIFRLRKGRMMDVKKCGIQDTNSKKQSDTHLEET
mouse PD-L1 protein, sequence (Q9EP73 19-238 limits assumed): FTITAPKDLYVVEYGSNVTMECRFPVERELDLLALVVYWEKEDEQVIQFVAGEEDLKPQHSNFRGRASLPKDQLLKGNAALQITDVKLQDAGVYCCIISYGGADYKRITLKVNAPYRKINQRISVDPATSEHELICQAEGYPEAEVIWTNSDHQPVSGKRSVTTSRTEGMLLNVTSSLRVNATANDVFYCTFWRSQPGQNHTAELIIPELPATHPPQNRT

B1: murine anti-PD-L1 monoclonal antibody BAP058 (antibody, V domains shown)
VH: QVHLQQPGAELVKPGASVKLSCKASGYTFTSYWMYWVKQGPGRGLEWIGRIDPNSGSTKYNEKFKNKATLTVDKSSSTAYMQLSSLTSEDSAVYYCARDYRKGLYAMDYWGQGTSVTVSS
VL: DIVMTQSHKFMSTSVGDRVSITCKASQDVGTAVAWYQQKPGQSPKLLIYWASTRHTGVPDRFTGSGSGTDFTLTISNVQSEDLADYFCQQYNSYPLTFGAGSKLELK
notes: Murine mAb; also called murine mAb BAP058; murine parent mAb
On to B1, for which the “ratio for the IC50 value (concentration of test mAb over labelled murine BAP058)” value in assay [1] amounted to 1.34. The IC50 in [2] is 0.3 nM.

B2: BAP058-hum11 (antibody, human IgG4 S228P, kappa, V domains shown)
VH: EVQLVQSGAEVKKPGATVKISCKVSGYTFTSYWMYWVRQATGQGLEWMGRIDPNSGSTKYNEKFKNRVTITADKSTSTAYMELSSLRSEDTAVYYCARDYRKGLYAMDYWGQGTTVTVSS
VL: DVVMTQSPLSLPVTLGQPASISCKASQDVGTAVAWYQQKPGQAPRLLIYWASTRHTGVPSRFSGSGSGTEFTLTISSLQPDDFATYYCQQYNSYPLTFGQGTKVEIKR
notes: Humanized IgG4(S228P)/human kappa mAb expressed in CHO cells
As to B2, the Kd with human PD-L1 protein came to 0.931 nM; in the assay with cynomolgus PD-L1 protein, 0.735 nM; with mouse PD-L1 protein it was 0.075 nM; with rat PD-L1 protein it was 1.36 nM. For the same molecule, the “Comp. binding (ratio conc. test mAb / conc. labelled murine BAP058 at the IC50)” value in assay [3] is 1.3. For the same molecule, in assay [4], the “IC50 (read off the curve)” value was ~0.04 µg/mL. The Rank in assay [5] was determined as 4.

B3: BAP058-hum04 (antibody, human IgG4 S228P, kappa, V domains shown)
VH: EVQLVQSGAEVKKPGESLRISCKGSGYTFTSYWMYWVRQAPGQGLEWMGRIDPNSGSTKYNEKFKNRVTISVDTSKNQFSLKLSSVTAADTAVYYCARDYRKGLYAMDYWGQGTTVTVSS
VL: EIVLTQSPDFQSVTPKEKVTITCKASQDVGTAVAWYLQKPGQSPQLLIYWASTRHTGVPSRFSGSGSGTDFTFTISSLQPEDIATYYCQQYNSYPLTFGQGTKVEIKR
notes: as for B2
For the molecule B3, the Kd worked out at 2.14 nM in the assay with human PD-L1 protein, 0.369 nM with cynomolgus PD-L1 protein, 77.4 nM with mouse PD-L1 protein and 6.14 nM with rat PD-L1 protein. Further, the “Comp. binding (ratio conc. test mAb / conc. labelled murine BAP058 at the IC50)” value in assay [3] is 1.13. The “IC50 (read off the curve)” value in [4] was ~0.04 µg/mL. The molecule further gave a Rank in assay [5] of 3.

B4: BAP058-hum13 (antibody, human IgG4 S228P, kappa, V domains shown)
VH: EVQLVQSGAEVKKPGATVKISCKVSGYTFTSYWMYWVRQARGQRLEWIGRIDPNSGSTKYNEKFKNRFTISRDNSKNTLYLQMNSLRAEDTAVYYCARDYRKGLYAMDYWGQGTTVTVSS
VL: AIQLTQSPSSLSASVGDRVTITCKASQDVGTAVAWYLQKPGQSPQLLIYWASTRHTGVPSRFSGSGSGTDFTFTISSLEAEDAATYYCQQYNSYPLTFGQGTKVEIKR
notes: as for B2
As to B4, the Kd with human PD-L1 protein came out at 0.137 nM; in the assay with cynomolgus PD-L1 protein, 0.431 nM; with mouse PD-L1 protein it was 0.04 nM; with rat PD-L1 protein, 0.431 nM. In addition, the “Comp. binding (ratio conc. test mAb / conc. labelled murine BAP058 at the IC50)” value in assay [3] was found to be 2.91. Further, in assay [4], the “IC50 (read off the curve)” value was ~0.04 µg/mL. The molecule also returned a Rank in [5] of 2.

The values above are taken from patent US20160108123A1 (Novartis, published 2016).
